Test results from article PMC10536834, “Elucidating the Role of a Calcium-Binding Loop in an x-Prolyl Aminodipeptidase from Lb. helveticus” (ACS Omega, 2023).

Substrate: NCC(=O)N1CCC[C@H]1C(=O)Nc1ccc([N+](=O)[O-])cc1
Test: purified protein
Format: biochemical, Lactobacillus helveticus
Details: 50 mM MES pH 6.5, 40 °C, 200 nM enzyme, 75-500 μM substrate

Protein	Km [µM]
PepX (x-prolyl aminodipeptidase) from Lactobacillus helveticus (Lactobacillus helveticus) (protein, recombinant, N-terminal six-histidine tag, pET14b, E. coli BL21(DE3)pLysS; PepX known to form dimers) MKYNQYAYVETDFQQQVKELIDINFLPKNYQVWDFSSLLAKLVKNAIAEAKTDAAKNAKLAEFAVSDHQTLADFLKEKPTEIGTKQFYNVALQLLGYHVHYDYDFADPTGFMQRNALPFLQDISDNQKLISAFYRLLNTRAKNGQILLDVMAGKGYFTQFWGQNKFKFFNGKSIPVFDTNKVIREVVYVETDLDTDHDGKSDLIQVTVFRPEETNKGLKVPALYTASPYFGGIIANEKRNHNVDENLSDSTEWNDPQYVHSPIVKAEKPDGSSRPATEEAVHKSSYPLNEYMLARGFASVFAGAIGTRGSDGVRITGAPEETESAAAVIEWLHGDRVAYTDRTRTVQTTADWCNGNIGMTGRSYLGTLQIAIATTGVKGLKTVVSEAAISSWYDYYREHGLVIAPEACQGEDLDLLAETCQSNLWDAGSYLKIKPEYDKMQKQLREKEDRNTGQYSDFWEARNYRHHADGIKCSWISVHGLNDWNVKPKNVYKIWQLVKKMPMKHHLFLHQGPHYNMNNLVSIDFTDLMNLWFVHELLGIENNAYNQWPTVMIQDNLQADKWHEEPDWSNDLGQEKIYYPTDEGELFQDGNGKAQKSFTDVGGIEFKKAGISESDWQYKFICGDEKWAKPSLRFETDEFTHPTTIVGRPEVKVRVSASLPKGEISVALVELGERQRLTATPKFLMHGGQELGYRFGTDTLQEFVPDKKTKAKLITKAHMNLQNFKDMKKPEAIDADKFYDLDFLLQPTYYTIPSGSKLALIIYSTDQGMTKRPLEDETYTIDLANTEIKFYEK	302
PepX (x-prolyl aminodipeptidase) from Lactobacillus helveticus (Lactobacillus helveticus; D196A) (protein, recombinant, N-terminal six-histidine tag, pET14b, E. coli BL21(DE3)pLysS; PepX known to form dimers) MKYNQYAYVETDFQQQVKELIDINFLPKNYQVWDFSSLLAKLVKNAIAEAKTDAAKNAKLAEFAVSDHQTLADFLKEKPTEIGTKQFYNVALQLLGYHVHYDYDFADPTGFMQRNALPFLQDISDNQKLISAFYRLLNTRAKNGQILLDVMAGKGYFTQFWGQNKFKFFNGKSIPVFDTNKVIREVVYVETDLDTAHDGKSDLIQVTVFRPEETNKGLKVPALYTASPYFGGIIANEKRNHNVDENLSDSTEWNDPQYVHSPIVKAEKPDGSSRPATEEAVHKSSYPLNEYMLARGFASVFAGAIGTRGSDGVRITGAPEETESAAAVIEWLHGDRVAYTDRTRTVQTTADWCNGNIGMTGRSYLGTLQIAIATTGVKGLKTVVSEAAISSWYDYYREHGLVIAPEACQGEDLDLLAETCQSNLWDAGSYLKIKPEYDKMQKQLREKEDRNTGQYSDFWEARNYRHHADGIKCSWISVHGLNDWNVKPKNVYKIWQLVKKMPMKHHLFLHQGPHYNMNNLVSIDFTDLMNLWFVHELLGIENNAYNQWPTVMIQDNLQADKWHEEPDWSNDLGQEKIYYPTDEGELFQDGNGKAQKSFTDVGGIEFKKAGISESDWQYKFICGDEKWAKPSLRFETDEFTHPTTIVGRPEVKVRVSASLPKGEISVALVELGERQRLTATPKFLMHGGQELGYRFGTDTLQEFVPDKKTKAKLITKAHMNLQNFKDMKKPEAIDADKFYDLDFLLQPTYYTIPSGSKLALIIYSTDQGMTKRPLEDETYTIDLANTEIKFYEK	315
